Experiments:
[1] = target: IpaD (Shigella flexneri) (UniProt P18013); assay: negative-stain EM three-dimensional reconstruction; tip complex and needle of purified needle complexes from the wild-type strain; the half of the images with the lower cross-correlation to the ΔipaB map, 24 Å; complex assembled on the bacteria
[2] = target: IpaD (Shigella flexneri) (UniProt P18013); assay: negative-stain EM three-dimensional reconstruction; tip complex and needle of needle complexes purified on Ni-NTA by His6-MxiG from mxiH mutant strains (Q51A, P44A, P44A+Q51A), 21-24 Å; Q51A map refined to 19 Å; complex assembled on the bacteria
[3] = target: IpaD (Shigella flexneri) (UniProt P18013); assay: negative-stain EM three-dimensional reconstruction; tip complex and needle of purified needle complexes from the ΔipaB strain; single particle and helical image analysis, 25 Å; complex assembled on the bacteria
[4] = target: IpaB (Shigella flexneri); assay: avidin labelling with negative-stain EM; needle complexes with biotinylated Avitag proteins held on Ni-NTA beads by His6-MxiG, avidin in 300 to 500 molar excess overnight at 4°C, washed, eluted, negative stain; avidin counted on the needle tips
[5] = target: MxiH (Shigella flexneri) (UniProt P0A223); assay: as above
[6] = target: IpaD_avitag (Shigella flexneri) (UniProt P18013); assay: as above
[7] = target: the molecule itself; assay: cross-linking; bacteria of otherwise wild-type background treated with 30 uM BM(PEG)2, quenched; crudely purified needle complexes, Western blot with anti-IpaD and anti-IpaB; no bands with the oxidiser; pattern unchanged on addition of Congo red

Sequence of MxiH (Shigella flexneri) (P0A223 whole entry): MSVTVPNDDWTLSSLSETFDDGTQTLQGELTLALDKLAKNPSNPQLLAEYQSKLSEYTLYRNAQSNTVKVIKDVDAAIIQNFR

IpaD (from UniProt P18013 1-332) (natural protein)
stoichiometry N [1]: 4
stoichiometry N [2]: 4
stoichiometry N [3]: 5
stoichiometry N [4]: 4

IpaD_avitag (from UniProt P18013 1-332) (natural protein)
percent of needle tips labelled with at least one avidin [5]: 25%
stoichiometry N [6]: 4

IpaB_avitag (natural protein)
percent of needle tips labelled with at least one avidin [5]: 2.5%

B1: IpaD C322S/S173C/K258C (natural protein)
chain: MNITTLTNSISTSSFSPNNTNGSSTETVNSDIKTTTSSHPVSSLTMLNDTLHNIRTTNQALKKELSQKTLTKTSLEEIALHSSQISMDVNKSAQLLDILSRNEYPINKDARELLHSAPKEAELDGDQMISHRELWAKIANSINDINEQYLKVYEHAVSSYTQMYQDFSAVLSCLAGWISPGGNDGNSVKLQVNSLKKALEELKEKYKDKPLYPANNTVSQEQANKWLTELGGTIGKVSQKNGGYVVSINMTPIDNMLCSLDNLGGNGEVVLDNAKYQAWNAGFSAEDETMKNNLQTLVQKYSNANSIFDNLVKVLSSTISSSTDTDKLFLHF
notes: IpaD, Shigella flexneri, with the intrinsic cysteine 322 changed to serine and two cysteines put in (helix α3 and helix α6); also called ipaDS173C/K258C; source: S. flexneri ΔipaD, ΔipaB ΔipaD or ΔmxiH ΔipaD background, from pUC18 ipaD_(C322S); on needle tips, in sheared needles or crudely purified needle complexes
stoichiometry N [7]: 5
